This note sets out measurements from patent publication US20250262210A1 (TRUSTEES OF COLUMBIA UNIVERSITY IN THE CITY OF NEW YORK, published 2025).

The target of one assay is T1, VPS18 (human, UniProt Q9P253 2-973).
T1 sequence (looked up): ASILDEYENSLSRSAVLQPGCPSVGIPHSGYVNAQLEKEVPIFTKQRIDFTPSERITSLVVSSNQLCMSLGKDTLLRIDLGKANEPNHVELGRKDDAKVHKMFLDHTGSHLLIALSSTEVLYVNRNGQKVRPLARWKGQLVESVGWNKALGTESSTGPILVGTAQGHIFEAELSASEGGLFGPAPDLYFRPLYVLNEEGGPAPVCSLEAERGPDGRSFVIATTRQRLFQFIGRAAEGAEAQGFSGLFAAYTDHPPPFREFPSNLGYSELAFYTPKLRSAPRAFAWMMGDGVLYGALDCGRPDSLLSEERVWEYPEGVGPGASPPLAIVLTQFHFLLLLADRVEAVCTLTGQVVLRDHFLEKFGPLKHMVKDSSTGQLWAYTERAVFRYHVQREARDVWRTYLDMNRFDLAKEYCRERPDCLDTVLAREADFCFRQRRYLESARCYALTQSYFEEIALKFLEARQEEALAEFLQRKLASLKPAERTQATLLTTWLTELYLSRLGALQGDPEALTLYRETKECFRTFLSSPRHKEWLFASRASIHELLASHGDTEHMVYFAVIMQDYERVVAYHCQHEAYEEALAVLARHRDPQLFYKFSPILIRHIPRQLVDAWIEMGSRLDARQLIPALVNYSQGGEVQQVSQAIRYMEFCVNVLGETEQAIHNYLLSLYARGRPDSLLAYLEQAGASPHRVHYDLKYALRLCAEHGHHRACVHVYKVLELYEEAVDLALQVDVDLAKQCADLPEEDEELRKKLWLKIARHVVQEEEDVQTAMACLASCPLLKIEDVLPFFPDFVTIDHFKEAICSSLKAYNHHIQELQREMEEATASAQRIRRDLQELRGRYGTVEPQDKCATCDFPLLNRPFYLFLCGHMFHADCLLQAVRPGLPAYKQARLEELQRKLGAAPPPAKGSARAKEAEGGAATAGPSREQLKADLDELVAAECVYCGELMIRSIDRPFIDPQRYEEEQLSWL
Kind of assay: IP/MS, LZTR1 R810W-FLAG, U87. The procedure, abridged: (§1)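 Read-out: spectral counts from LC-MS/MS (Orbitrap Fusion) after MaxQuant identification. Variable modifications were Met oxidation, protein N-terminal acetylation and N/Q deamidation.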

The target of another assay is T2, LAMB3 (human, UniProt Q13751 18-1172).
T2 sequence (looked up): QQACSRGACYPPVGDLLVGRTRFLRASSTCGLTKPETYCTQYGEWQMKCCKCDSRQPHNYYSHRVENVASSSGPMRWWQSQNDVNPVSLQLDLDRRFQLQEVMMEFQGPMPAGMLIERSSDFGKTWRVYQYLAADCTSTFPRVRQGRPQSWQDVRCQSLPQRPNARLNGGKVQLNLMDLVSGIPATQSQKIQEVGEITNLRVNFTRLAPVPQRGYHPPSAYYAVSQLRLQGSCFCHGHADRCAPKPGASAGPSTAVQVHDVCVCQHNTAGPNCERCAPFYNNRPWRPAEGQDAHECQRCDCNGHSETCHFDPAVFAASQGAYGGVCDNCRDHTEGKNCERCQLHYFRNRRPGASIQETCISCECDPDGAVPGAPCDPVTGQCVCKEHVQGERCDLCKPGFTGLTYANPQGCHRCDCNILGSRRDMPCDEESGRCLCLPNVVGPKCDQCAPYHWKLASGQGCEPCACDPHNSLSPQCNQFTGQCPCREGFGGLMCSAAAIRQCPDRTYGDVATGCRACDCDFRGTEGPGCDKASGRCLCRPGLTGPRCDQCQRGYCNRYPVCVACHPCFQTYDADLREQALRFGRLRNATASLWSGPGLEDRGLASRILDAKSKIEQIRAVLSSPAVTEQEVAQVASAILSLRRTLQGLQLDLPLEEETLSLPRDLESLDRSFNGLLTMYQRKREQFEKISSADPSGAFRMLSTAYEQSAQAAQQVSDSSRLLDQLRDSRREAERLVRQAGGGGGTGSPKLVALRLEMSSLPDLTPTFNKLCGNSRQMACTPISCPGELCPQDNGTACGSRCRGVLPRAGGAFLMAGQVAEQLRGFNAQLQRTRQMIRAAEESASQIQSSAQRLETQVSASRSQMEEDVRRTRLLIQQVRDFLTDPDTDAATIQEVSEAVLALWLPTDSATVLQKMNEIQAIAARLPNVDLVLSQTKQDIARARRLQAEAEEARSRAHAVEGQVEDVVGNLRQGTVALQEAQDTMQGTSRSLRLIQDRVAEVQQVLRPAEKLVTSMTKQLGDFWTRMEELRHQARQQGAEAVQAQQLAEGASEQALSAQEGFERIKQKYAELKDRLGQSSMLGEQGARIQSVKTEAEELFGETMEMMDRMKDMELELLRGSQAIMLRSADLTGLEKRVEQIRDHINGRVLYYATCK
Kind of assay: IP/MS, LZTR1 R810W-FLAG, U87. The procedure, abridged:
as §1

B1: LZTR1 R810W-FLAG (other, human, UniProt Q8N653 1-840, looked up)
chain: MAGPGSTGGQIGAAALAGGARSKVAPSVDFDHSCSDSVEYLTLNFGPFETVHRWRRLPPCDEFVGARRSKHTVVAYKDAIYVFGGDNGKTMLNDLLRFDVKDCSWCRAFTTGTPPAPRYHHSAVVYGSSMFVFGGYTGDIYSNSNLKNKNDLFEYKFATGQWTEWKIEGRLPVARSAHGATVYSDKLWIFAGYDGNARLNDMWTIGLQDRELTCWEEVAQSGEIPPSCCNFPVAVCRDKMFVFSGQSGAKITNNLFQFEFKDKTWTRIPTEHLLRGSPPPPQRRYGHTMVAFDRHLYVFGGAADNTLPNELHCYDVDFQTWEVVQPSSDSEVGGAEVPERACASEEVPTLTYEERVGFKKSRDVFGLDFGTTSAKQPTQPASELPSGRLFHAAAVISDAMYIFGGTVDNNIRSGEMYRFQFSCYPKCTLHEDYGRLWESRQFCDVEFVLGEKEECVQGHVAIVTARSRWLRRKITQARERLAQKLEQEAAPVPREAPGVAAGGARPPLLHVAIREAEARPFEVLMQFLYTDKIKYPRKGHVEDVLLIMDVYKLALSFQLCRLEQLCRQYIEASVDLQNVLVVCESAARLQLSQLKEHCLNFVVKESHFNQVIMMKEFERLSSPLIVEIVRRKQQPPPRTPLDQPVDIGTSLIQDMKAYLEGAGAEFCDITLLLDGHPRPAHKAILAARSSYFEAMFRSFMPEDGQVNISIGEMVPSRQAFESMLRYIYYGEVNMPPEDSLYLFAAPYYYGFYNNRLQAYCKQNLEMNVTVQNVLQILEAADKTQALDMKRHCLHIIVHQFTKVSKLPTLWSLSQQLLLDIIDSLASHISDKQCAELGADI
notes: Stably expressed in U87 cells by lentivirus; also called LZTR1-FLAG-R810W; LZTR1 RW; not shown: FLAG tag
As for B1, the binding result with VPS18 and with LAMB3 was “binds” in each case.
